Data: patent US20190119348A1, “PARATHYROID HORMONE RECEPTOR 1 ANTAGONIST AND INVERSE AGONIST POLYPEPTIDES AND METHODS OF THEIR USE” (The General Hospital Corporation, priority 2016, published 2019)

These substances were tested against human parathyroid hormone receptor 1 (hPTHR1) (human) (UniProt Q03431) (assay: cell-based or functional assay).
Sequence of human parathyroid hormone receptor 1 (hPTHR1) (human) (Q03431 27-593): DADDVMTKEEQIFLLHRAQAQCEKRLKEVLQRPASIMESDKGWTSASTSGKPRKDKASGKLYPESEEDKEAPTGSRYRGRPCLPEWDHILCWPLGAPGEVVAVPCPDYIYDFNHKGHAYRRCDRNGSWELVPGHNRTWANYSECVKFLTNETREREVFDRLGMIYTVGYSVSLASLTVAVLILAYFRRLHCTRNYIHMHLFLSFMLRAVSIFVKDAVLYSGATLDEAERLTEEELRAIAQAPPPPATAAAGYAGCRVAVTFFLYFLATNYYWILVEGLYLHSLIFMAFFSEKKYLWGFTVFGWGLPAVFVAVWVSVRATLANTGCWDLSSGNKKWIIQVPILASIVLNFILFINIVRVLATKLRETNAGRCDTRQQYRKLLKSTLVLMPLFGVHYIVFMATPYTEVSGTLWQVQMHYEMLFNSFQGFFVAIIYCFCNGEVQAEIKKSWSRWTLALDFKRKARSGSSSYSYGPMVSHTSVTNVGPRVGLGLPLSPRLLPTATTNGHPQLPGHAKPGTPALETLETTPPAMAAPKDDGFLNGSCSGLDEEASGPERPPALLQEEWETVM
In the case of “Nle8, TMR, dW12, C35-bPTH(7-35)-1977 (peptide)”, the IC50 (nanomolar value of the pIC50), antagonism of PTH(1-34)-induced cAMP response, GP-2.3 cells is reported as 2800 nM and the pIC50, antagonism of PTH(1-34)-induced cAMP response (GloSensor), GP-2.3 cells is reported as 5.55 -log M.
“Nle8, TMR, dW12, W23, C37-LA-PTH(5-37)-1975 (peptide)” gave an IC50 (nanomolar value of the pIC50), antagonism of PTH(1-34)-induced cAMP response, GP-2.3 cells of 3610 nM, an IC50 (nanomolar value of the pIC50), antagonism of PTH(1-34)-induced cAMP response, SGS-72 cells of 12 nM and an IC50 (nanomolar value of the pIC50), antagonism of PTHrP(1-36)-induced cAMP response, SGS-72 cells of 10 nM. For the same substance, the IC50, antagonism of PTH(1-34) (0.3 nM)-induced cAMP response, SGS-72 cells was 20.3 nM, the IC50, antagonism of PTHrP(1-36) (0.3 nM)-induced cAMP response, SGS-72 cells was 9.71 nM and the pIC50, antagonism of PTH(1-34) (0.3 nM)-induced cAMP response, SGS-72 cells was 7.69 -log M. The pIC50, antagonism of PTH(1-34)-induced cAMP response (GloSensor), GP-2.3 cells was 5.44 -log M, the pIC50, antagonism of PTH(1-34)-induced cAMP response, SGS-72 cells was 7.91 -log M and the pIC50, antagonism of PTHrP(1-36) (0.3 nM)-induced cAMP response, SGS-72 cells was 8.01 -log M. For the same substance, the pIC50, antagonism of PTHrP(1-36)-induced cAMP response, SGS-72 cells was 8.01 -log M.
In the case of “Nle8, dW12, W23, C37-LA-PTH(5-37)-1974 (peptide)”, the IC50 (nanomolar value of the pIC50), antagonism of PTH(1-34)-induced cAMP response, GP-2.3 cells is reported as 224 nM, the IC50, antagonism of PTH(1-34) (0.3 nM)-induced cAMP response, SGS-72 cells is reported as 4.39 nM and the pIC50, antagonism of PTH(1-34) (0.3 nM)-induced cAMP response, SGS-72 cells is reported as 8.36 -log M. The pIC50, antagonism of PTH(1-34)-induced cAMP response (GloSensor), GP-2.3 cells was 6.65 -log M.
For “Nle8, dW12, W23, Y36-LA-PTH(5-36)-1954 (peptide)”, the IC50, antagonism of PTH(1-34) (0.3 nM)-induced cAMP response, SGS-72 cells was 1.75 nM and the pIC50, antagonism of PTH(1-34) (0.3 nM)-induced cAMP response, SGS-72 cells was 8.76 -log M.
For “PEG20-Nle8, TMR, dW12, W23, C37-LA-PTH(5-37)-1978 (peptide)”, the IC50 (nanomolar value of the pIC50), antagonism of PTH(1-34)-induced cAMP response, GP-2.3 cells was 642 nM, the IC50 (nanomolar value of the pIC50), antagonism of PTH(1-34)-induced cAMP response, SGS-72 cells was 21 nM and the IC50 (nanomolar value of the pIC50), antagonism of PTHrP(1-36)-induced cAMP response, SGS-72 cells was 13 nM. For the same substance, the IC50, antagonism of PTH(1-34) (0.3 nM)-induced cAMP response, SGS-72 cells was 24.1 nM, the IC50, antagonism of PTHrP(1-36) (0.3 nM)-induced cAMP response, SGS-72 cells was 12.9 nM and the pIC50, antagonism of PTH(1-34) (0.3 nM)-induced cAMP response, SGS-72 cells was 7.62 -log M. For the same substance, the pIC50, antagonism of PTH(1-34)-induced cAMP response (GloSensor), GP-2.3 cells was 6.19 -log M, the pIC50, antagonism of PTH(1-34)-induced cAMP response, SGS-72 cells was 7.68 -log M and the pIC50, antagonism of PTHrP(1-36) (0.3 nM)-induced cAMP response, SGS-72 cells was 7.89 -log M. For the same substance, the pIC50, antagonism of PTHrP(1-36)-induced cAMP response, SGS-72 cells was 7.89 -log M.
With “TMR-L11, dW12, W23-LA-PTH(5-36)-2004 (peptide)” the IC50, antagonism of PTH(1-34) (0.3 nM)-induced cAMP response, SGS-72 cells was 2.13 nM and the pIC50, antagonism of PTH(1-34) (0.3 nM)-induced cAMP response, SGS-72 cells was 8.67 -log M.
“TMR-L11, dW12, W23-LA-PTH(7-36)-2002 (peptide)” was tested, and the IC50, antagonism of PTH(1-34) (0.3 nM)-induced cAMP response, SGS-72 cells was 1.49 nM and the pIC50, antagonism of PTH(1-34) (0.3 nM)-induced cAMP response, SGS-72 cells was 8.83 -log M.
With “TMR-Nle8, L11, dW12, W23-LA-PTH(5-36)-2000 (peptide)” the IC50, antagonism of PTH(1-34) (0.3 nM)-induced cAMP response, SGS-72 cells was 3.02 nM and the pIC50, antagonism of PTH(1-34) (0.3 nM)-induced cAMP response, SGS-72 cells was 8.52 -log M.
With “TMR-Nle8, L11, dW12, W23-LA-PTH(7-36)-1998 (peptide)” the IC50, antagonism of PTH(1-34) (0.3 nM)-induced cAMP response, SGS-72 cells was 2.21 nM and the pIC50, antagonism of PTH(1-34) (0.3 nM)-induced cAMP response, SGS-72 cells was 8.65 -log M.
For “TMR-Nle8, dW12, W23-LA-PTH(7-36)-1993 (peptide)”, the IC50, antagonism of PTH(1-34) (0.3 nM)-induced cAMP response, SGS-72 cells was 3.34 nM and the pIC50, antagonism of PTH(1-34) (0.3 nM)-induced cAMP response, SGS-72 cells was 8.48 -log M.
In the case of “TMR-dW12, W23, C37-LA-PTH(5-37)-1976 (peptide)”, the IC50 (nanomolar value of the pIC50), antagonism of PTH(1-34)-induced cAMP response, GP-2.3 cells is reported as 1960 nM, the IC50, antagonism of PTH(1-34) (0.3 nM)-induced cAMP response, SGS-72 cells is reported as 18.5 nM and the pIC50, antagonism of PTH(1-34) (0.3 nM)-induced cAMP response, SGS-72 cells is reported as 7.73 -log M. The pIC50, antagonism of PTH(1-34)-induced cAMP response (GloSensor), GP-2.3 cells was 5.71 -log M.
“TMR-dW12, W23-LA-PTH(5-36)-1953 (peptide)” was tested, and the IC50 (nanomolar value of the pIC50), antagonism of PTH(1-34)-induced cAMP response, GP-2.3 cells was 160 nM, the IC50, antagonism of PTH(1-34) (0.3 nM)-induced cAMP response, SGS-72 cells was 3.23 nM and the pIC50, antagonism of PTH(1-34) (0.3 nM)-induced cAMP response, SGS-72 cells was 8.49 -log M. For the same substance, the pIC50, antagonism of PTH(1-34)-induced cAMP response (GloSensor), GP-2.3 cells was 6.8 -log M.
With “TMR-dW12, W23-LA-PTH(7-36)-1991 (peptide)” the IC50, antagonism of PTH(1-34) (0.3 nM)-induced cAMP response, SGS-72 cells was 1.95 nM and the pIC50, antagonism of PTH(1-34) (0.3 nM)-induced cAMP response, SGS-72 cells was 8.71 -log M.
